This note sets out measurements from article PMC4866608 (Archives of biochemistry and biophysics, 2015).

Test [1] addresses 2-hydroxymuconate semialdehyde dehydrogenase (NahI) from Pseudomonas putida G7, His-tag removed (GH-NahI) (Pseudomonas putida G7). Description: dynamic light scattering.
Test [2] shares this target. Description: small-angle X-ray scattering.
The target in a further test is T1, NahI (GH-NahI) (Pseudomonas putida, UniProt Q1XGK8).
T1 sequence (Q1XGK8 1-486): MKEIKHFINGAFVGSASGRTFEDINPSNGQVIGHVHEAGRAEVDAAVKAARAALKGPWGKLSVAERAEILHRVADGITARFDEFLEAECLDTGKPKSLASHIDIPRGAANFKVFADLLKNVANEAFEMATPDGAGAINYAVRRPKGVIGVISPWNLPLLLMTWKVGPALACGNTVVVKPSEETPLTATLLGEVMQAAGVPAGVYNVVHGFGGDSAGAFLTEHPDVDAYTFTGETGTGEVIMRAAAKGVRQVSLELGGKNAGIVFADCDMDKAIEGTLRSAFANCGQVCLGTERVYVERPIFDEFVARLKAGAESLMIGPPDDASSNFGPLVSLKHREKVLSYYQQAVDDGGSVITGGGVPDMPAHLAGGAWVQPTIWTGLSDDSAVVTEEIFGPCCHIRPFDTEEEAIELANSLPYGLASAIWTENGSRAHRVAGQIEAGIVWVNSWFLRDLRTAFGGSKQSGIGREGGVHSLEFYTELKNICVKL
Description: CD thermal denaturation at […] nm. The test is classed as binding. As to conditions: 50 mM sodium phosphate pH 7.4, 50 mM NaCl, 0.3 mg/mL protein; two-step denaturation.

In general, stoichiometry N refers to a count of units in the complex or per binding partner. With “2-hydroxymuconate semialdehyde dehydrogenase (NahI) from Pseudomonas putida G7, His-tag removed (GH-NahI) (enzyme)”, the stoichiometry N stood at 3 in test [1] and 4 in test [2].
In the case of `NC(=O)c1ccc[n+]([C@@H]2O[C@H](COP(=O)(O)OP(=O)(O)OC[C@H]3O[C@@H](n4cnc5c(N)ncnc54)[C@H](O)[C@@H]3O)[C@@H](O)[C@H]2O)c1` [NAD^+], on NahI (GH-NahI), the “second transition temperature of the NAD+ complex (apo enzyme 73.9 °C)” value worked out at 76.7 °C.
